Patent EP4806514A2 (Lepu Biopharma Co., Ltd., dated 2025)

Tests used:
Test in all cases: ELISA, antigen coated at 1 ug/mL
[1] = biological target: T1, human CDH16 protein (hCDH16-his, Novoprotein, Cat. No. CJ16) (human, UniProt O75309 19-786)
T1 construct: Bought; also called human CDH16-his
T1 sequence (looked up): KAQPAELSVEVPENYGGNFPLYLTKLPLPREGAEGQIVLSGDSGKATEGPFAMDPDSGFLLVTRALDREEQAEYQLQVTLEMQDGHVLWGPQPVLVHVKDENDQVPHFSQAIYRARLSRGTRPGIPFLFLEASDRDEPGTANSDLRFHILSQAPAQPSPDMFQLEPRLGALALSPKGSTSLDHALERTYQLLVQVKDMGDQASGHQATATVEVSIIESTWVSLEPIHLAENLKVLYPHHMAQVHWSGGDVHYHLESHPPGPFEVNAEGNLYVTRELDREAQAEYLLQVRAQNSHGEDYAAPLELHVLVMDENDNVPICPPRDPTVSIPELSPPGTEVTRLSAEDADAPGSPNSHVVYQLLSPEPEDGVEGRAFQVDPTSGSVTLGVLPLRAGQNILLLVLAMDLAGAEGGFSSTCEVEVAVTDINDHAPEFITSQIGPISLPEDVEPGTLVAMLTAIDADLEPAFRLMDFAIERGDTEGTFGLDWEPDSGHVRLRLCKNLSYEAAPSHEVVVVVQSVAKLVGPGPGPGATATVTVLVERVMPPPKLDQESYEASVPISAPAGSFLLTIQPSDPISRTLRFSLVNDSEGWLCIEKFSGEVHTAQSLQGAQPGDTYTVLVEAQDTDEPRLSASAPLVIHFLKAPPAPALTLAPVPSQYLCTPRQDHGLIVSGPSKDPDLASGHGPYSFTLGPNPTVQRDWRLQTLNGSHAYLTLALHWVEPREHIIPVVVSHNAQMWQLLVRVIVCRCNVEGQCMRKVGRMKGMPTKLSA

[2] = biological target: T2, human CDH9-his (Acro bio, Cat. No. CA9-H52H6) (human, UniProt Q9ULB4 54-615)
T2 construct: Bought; also called human CDH9 protein
T2 sequence (looked up): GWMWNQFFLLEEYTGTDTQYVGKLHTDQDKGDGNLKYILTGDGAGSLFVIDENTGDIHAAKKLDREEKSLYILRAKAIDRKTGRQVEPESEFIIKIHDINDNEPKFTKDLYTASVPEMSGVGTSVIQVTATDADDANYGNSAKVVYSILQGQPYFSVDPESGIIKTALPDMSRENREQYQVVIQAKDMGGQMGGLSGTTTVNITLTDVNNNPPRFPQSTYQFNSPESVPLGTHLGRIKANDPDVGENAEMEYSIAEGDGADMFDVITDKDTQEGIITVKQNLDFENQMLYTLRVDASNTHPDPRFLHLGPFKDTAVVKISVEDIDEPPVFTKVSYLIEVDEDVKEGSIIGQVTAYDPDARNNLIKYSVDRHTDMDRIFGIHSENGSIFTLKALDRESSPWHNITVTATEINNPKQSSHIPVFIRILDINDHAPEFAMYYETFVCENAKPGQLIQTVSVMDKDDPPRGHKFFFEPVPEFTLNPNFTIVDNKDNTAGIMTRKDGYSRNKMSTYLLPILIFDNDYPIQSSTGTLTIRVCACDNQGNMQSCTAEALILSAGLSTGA

[3] = biological target: T3, human CDH6-his protein (Katcus, Cat. No. CDH-HM106) (human, UniProt P55285 54-615, limits assumed)
T3 construct: Bought; also called human CDH6 protein
T3 sequence (looked up): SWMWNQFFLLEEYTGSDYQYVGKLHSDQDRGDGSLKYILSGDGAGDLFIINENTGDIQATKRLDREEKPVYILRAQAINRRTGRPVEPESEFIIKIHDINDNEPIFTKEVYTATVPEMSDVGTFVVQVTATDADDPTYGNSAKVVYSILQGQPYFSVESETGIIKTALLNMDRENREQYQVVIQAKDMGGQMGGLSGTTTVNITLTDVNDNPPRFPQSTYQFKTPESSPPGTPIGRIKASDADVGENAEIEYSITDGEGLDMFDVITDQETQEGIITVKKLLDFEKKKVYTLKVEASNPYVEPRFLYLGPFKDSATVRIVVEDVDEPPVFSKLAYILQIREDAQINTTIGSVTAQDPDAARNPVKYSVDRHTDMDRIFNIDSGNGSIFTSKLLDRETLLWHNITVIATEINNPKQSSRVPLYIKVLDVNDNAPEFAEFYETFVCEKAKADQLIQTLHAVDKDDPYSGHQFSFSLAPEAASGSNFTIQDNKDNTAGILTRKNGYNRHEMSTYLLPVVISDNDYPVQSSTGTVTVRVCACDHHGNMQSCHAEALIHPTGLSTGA

[4] = biological target: T4, rat CDH17-his (Sino bio, Cat. No. 80283-R08H) (rat, UniProt P55281 22-786)
T4 construct: Bought; also called rat CDH17 protein
T4 sequence (looked up): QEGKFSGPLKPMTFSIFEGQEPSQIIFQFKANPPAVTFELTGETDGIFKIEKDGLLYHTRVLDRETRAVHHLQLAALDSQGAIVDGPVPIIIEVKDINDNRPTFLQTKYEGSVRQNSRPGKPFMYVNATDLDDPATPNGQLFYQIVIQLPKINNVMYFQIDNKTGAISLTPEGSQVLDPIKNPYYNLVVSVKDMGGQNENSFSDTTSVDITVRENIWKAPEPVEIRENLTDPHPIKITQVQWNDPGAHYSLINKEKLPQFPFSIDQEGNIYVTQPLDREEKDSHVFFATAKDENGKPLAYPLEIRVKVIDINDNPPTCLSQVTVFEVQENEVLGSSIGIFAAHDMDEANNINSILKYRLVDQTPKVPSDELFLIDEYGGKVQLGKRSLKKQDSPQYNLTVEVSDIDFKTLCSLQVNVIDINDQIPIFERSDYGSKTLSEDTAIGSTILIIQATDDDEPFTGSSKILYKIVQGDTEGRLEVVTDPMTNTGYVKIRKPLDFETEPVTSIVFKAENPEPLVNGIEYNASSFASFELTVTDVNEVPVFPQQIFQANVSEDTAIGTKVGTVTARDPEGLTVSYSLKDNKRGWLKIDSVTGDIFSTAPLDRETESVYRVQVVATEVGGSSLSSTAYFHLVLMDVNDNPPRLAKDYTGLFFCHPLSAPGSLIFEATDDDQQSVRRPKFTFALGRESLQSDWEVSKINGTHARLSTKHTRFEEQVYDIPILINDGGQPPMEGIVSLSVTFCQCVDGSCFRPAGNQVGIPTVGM

binding result [1]: no binding (tested: titrated from 50 nM)
binding result [2]: no binding (tested: titrated from 50 nM)
binding result [3]: no binding (tested: titrated from 50 nM)
binding result [4]: no binding (tested: titrated from 50 nM)
B1: 29H8D3-z12 (antibody, V domains shown)
VH: QVQLVQSGAEVKKPGASVKVSCKASGYTFTDHTIHWMRQRPGQGLEWIGYIYPRDGYTKYNEKFKDRATLTADTSTSTAYMELRSLRSDDTAVYYCARFYYGYWYFDVWGQGTTVTVSS
VL: DIVMTQSPLSLPVTPGEPASISCRSSKSLLRSNGNTYLYWFLQKPGQSPQVLIYRMSNLASGVPDRFSGSGSGTDFTLKISRVEAEDVGVYYCMQHLEYPFTFGQGTKLEIK
notes: Humanized, human IgG1 constant region; also called 29H8D3-z12 mAb
